Residue numbers refer to the chain shown, from its start.
B1: COMBO_Rd4_6nM_C02 (antibody, V domains shown)
VH: EVQLLESGGGLVQPGGSLRLSCAASGFTFSSYAMNWVRQAPGKGLEWVSAISDSGGFVYYADSVKGRFTISRDNSKNTLYLQMNSLRAEDTAVYYCARYWPMDSWGQGTLVTVSS
VL: EIVLTQSPGTLSLSPGERATLSCRASQSVSSSYLAWYQQKPGQAPRLLMYDASIRATGIPDRFSGSGSGTDFTLTISRLEPEDFAVYYCQQYEFWPLTFGQGTKVEIK
notes: IgG
B2: COMBO_Rd4_6nM_C07 (antibody, V domains shown)
VH: B1 VH with A33P, N35S, S52G, D53G, F57S, V58L, Y59P, D103A, S104D
VL: B1 VL with S28P, V29I, E93Q, F94G
notes: IgG
B3: COMBO_Rd4_6nM_C08 (antibody, V domains shown)
VH: B1 VH with A33P, N35S, S52G, D53G, G56T, F57W, V58T
VL: B1 VL with E93Q, F94K
notes: IgG
B4: COMBO_Rd4_6nM_C09 (antibody, V domains shown)
VH: B1 VH with A33P, N35S, S52F, D53A, F57S, V58T
VL: B1 VL with S31A, S32Q, E93Q, F94A
notes: IgG
B5: COMBO_Rd4_6nM_C10 (antibody, V domains shown)
VH: B1 VH with A33P, N35S, S52G, D53G, F57S, V58I, Y59H
VL: B1 VL with L34W, A35G, E93Q, F94C
notes: IgG
B6: COMBO_Rd4_6nM_C11 (antibody, V domains shown)
VH: B1 VH with A33P, N35S, S52G, D53G, F57S, V58L, Y59G
VL: B1 VL with S31P, S32L, E93K, F94A
notes: IgG
B7: COMBO_Rd4_6nM_C21 (antibody, V domains shown)
VH: B1 VH with A33P, N35S, S52G, D53G, F57S, V58L, Y59P
VL: B1 VL with S31A, S32A, E93M, F94C
notes: IgG
B8: COMBO_Rd4_6nM_C22 (antibody, V domains shown)
VH: B1 VH with I51C, S52L, F57S, V58T
VL: B1 VL with E93Q, F94G
notes: IgG
B9: COMBO_Rd4_6nM_C25 (antibody, V domains shown)
VH: B1 VH with A33P, N35S, S52G, D53G, F57S, V58T, S104P
VL: B1 VL with S32P, E93Q, F94S
notes: IgG
B10: P5A2_VHVL (antibody, V domains shown)
VH: B1 VH with F57S, V58T, S104I
VL: B1 VL with E93G, F94S
notes: IgG
B11: P5C1_VHVL (antibody, V domains shown)
VH: B1 VH with A33P, N35S, S52G, D53G, F57S, V58T
VL: B1 VL with S32T, M49I, I54S, T57P, E93S, F94T, W95S
notes: IgG; also called PC1
B12: COMBO_Rd4_6nM_C12 (antibody, V domains shown)
VH: EVQLLESGGGLVQPGGSLRLSCAASGFTFSSYPMSWVRQAPGKGLEWVSAALGSGGSTYYADSVKGRFTISRDNSKNTLYLQMNSLRAEDTAVYYCARYWPMDSWGQGTLVTVS
VL: B1 VL with S31A, E93M, F94S
notes: IgG
B13: A02_Rd4_0.6nM_C18 (antibody, V domains shown)
VH: B1 VH with I51V, S52L, F57S, V58T, D103S, S104L
VL: B1 VL with S31E, S32L, E93F, F94G
notes: IgG
B14: COMBO_Rd4_0.6nM_C22 (antibody, V domains shown)
VH: B1 VH with F57S, V58R, Y59W, A97T, S104I
VL: B1 VL with Q27V, S28R, S32T, E93M, F94K
notes: IgG; also called COM22

Key:
Human BCMA (human) = Human BCMA (human) (UniProt Q02223); assay: SPR, IgG on chip, huBCMA analyte
cynomolgus monkey BCMA = target: T1, cynomolgus monkey BCMA (cynomolgus monkey, UniProt A0A2K5UD97 1-53); assay: SPR, IgG on chip, cyBCMA analyte
T1 construct: Soluble analyte in SPR; construct not described; also called cyBCMA; Cyno BCMA
T1 sequence (A0A2K5UD97 entry or part of it): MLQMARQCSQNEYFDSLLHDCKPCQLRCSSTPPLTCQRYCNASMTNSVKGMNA

Binder	Kd (Human BCMA (human))	koff (Human BCMA (human))	kon (Human BCMA (human))	Kd (cynomolgus monkey BCMA)	koff (cynomolgus monkey BCMA)	kon (cynomolgus monkey BCMA)
B1	0.422 nM	0.000443 s⁻¹	1.05e+06 M⁻¹ s⁻¹	1.71 nM	0.00136 s⁻¹	795000 M⁻¹ s⁻¹
B2	0.035 nM	0.000371 s⁻¹	1.05e+07 M⁻¹ s⁻¹	0.237 nM	0.000934 s⁻¹	3.94e+06 M⁻¹ s⁻¹
B3	0.019 nM	0.000169 s⁻¹	8.99e+06 M⁻¹ s⁻¹	0.14 nM	0.000428 s⁻¹	3.06e+06 M⁻¹ s⁻¹
B4	0.016 nM	0.000143 s⁻¹	8.85e+06 M⁻¹ s⁻¹	0.134 nM	0.000318 s⁻¹	2.37e+06 M⁻¹ s⁻¹
B5	0.018 nM	9.72e-05 s⁻¹	5.47e+06 M⁻¹ s⁻¹	0.105 nM	0.00016 s⁻¹	1.52e+06 M⁻¹ s⁻¹
B6	0.018 nM	0.000124 s⁻¹	6.74e+06 M⁻¹ s⁻¹	0.156 nM	0.000412 s⁻¹	2.64e+06 M⁻¹ s⁻¹
B7	0.006 nM	7.34e-05 s⁻¹	1.17e+07 M⁻¹ s⁻¹	0.078 nM	0.000248 s⁻¹	3.17e+06 M⁻¹ s⁻¹
B8	0.256 nM	0.000775 s⁻¹	3.03e+06 M⁻¹ s⁻¹	0.972 nM	0.00165 s⁻¹	1.7e+06 M⁻¹ s⁻¹
B9	0.014 nM	0.000113 s⁻¹	7.98e+06 M⁻¹ s⁻¹	0.079 nM	0.000226 s⁻¹	2.85e+06 M⁻¹ s⁻¹
B10	5.57 nM	0.0387 s⁻¹	6.96e+06 M⁻¹ s⁻¹	10.2 nM	0.0164 s⁻¹	1.61e+06 M⁻¹ s⁻¹
B11	5.99 nM	0.0692 s⁻¹	1.16e+07 M⁻¹ s⁻¹	15.2 nM	0.0538 s⁻¹	3.53e+06 M⁻¹ s⁻¹
B12	0.02 nM	0.00027 s⁻¹	1.38e+07 M⁻¹ s⁻¹	0.148 nM	0.000486 s⁻¹	3.29e+06 M⁻¹ s⁻¹
B13	0.048 nM	0.000229 s⁻¹	4.73e+06 M⁻¹ s⁻¹	0.197 nM	0.000639 s⁻¹	3.24e+06 M⁻¹ s⁻¹
B14	0.036 nM	7.15e-05 s⁻¹	1.97e+06 M⁻¹ s⁻¹	0.05 nM	6.66e-05 s⁻¹	1.34e+06 M⁻¹ s⁻¹
